Data on one substance can be found in patent EP2385124A2.

The assay addresses GST-DLG1 PDZ domains 1-2 fusion protein (human) (UniProt Q12959). Kind of assay: competition G assay, 100 uM unlabeled 8-mer against 20 uM biotin-labeled AA2L on GST-DLG1.

Bounds are passed on as bounds.

“eight amino acid CLASP-2 peptide MTSSSSVV (unlabeled)” yielded a percent inhibition greater than 50%.
